In article PMC6258877:

Molecular target: short cTag (s-cTag) on a CD8α stalk (human)
Test: flow cytometry on cells; 293T cells transiently transfected with the mimic constructs (co-expressed EGFP), stained with APC-conjugated streptavidin 48 hr later; MedFI of EGFP-positive cells; staining of cTag8 293T cells reversed by 1 mM biotin, 1 hr, room temperature

Chain of streptavidin allophycocyanin (APC) (P22629 25-183): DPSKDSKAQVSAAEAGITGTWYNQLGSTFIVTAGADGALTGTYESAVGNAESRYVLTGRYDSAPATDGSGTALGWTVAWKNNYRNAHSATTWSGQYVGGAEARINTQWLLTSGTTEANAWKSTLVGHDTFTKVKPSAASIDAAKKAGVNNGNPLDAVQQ

In the case of “streptavidin allophycocyanin (APC) (from UniProt P22629 25-183) (natural protein)”, the median fluorescence intensity (MedFI) is reported as 10000.
